The text below walks through data of publication PMC6886308, “NADP(H) allosterically regulates the interaction between ferredoxin and ferredoxin‐NADP^+ reductase” (FEBS Open Bio, 2019).

Broadly, the Kd is the free concentration of one partner at which half of the binding sites on the other are occupied at equilibrium, for simple one-to-one binding. High values mean a looser complex, low ones a tighter complex. The stoichiometry N is the number of molecules, sites or subunits per partner or assembly. The term Km denotes the substrate concentration at which the rate is half of its maximum. One may read the kcat as the number of substrate molecules converted per active site and unit of time at saturation.

Data set [1] deals with maize leaf ferredoxin-NADP+ reductase, wild-type (maize). Nature of the data set: ITC; 500 uM Fd I in the syringe titrated into 50 uM L-FNR in the cell; 50 mM Tris/HCl pH 7.5, no NaCl, 298 K; one set of independent binding sites; 0 uM NADP+.
The target of data set [2] is maize leaf ferredoxin-NADP+ reductase Y314S (maize). The data set is described as above.
Data set [3] has as its target maize leaf ferredoxin-NADP+ reductase R244Q (maize). The data set is described as above.
For data set [4], the target named is maize leaf ferredoxin-NADP+ reductase R235Q (maize). The description is as above.
The target of data set [5] is maize leaf ferredoxin-NADP+ reductase, wild-type (maize).
The target of data set [6] is maize leaf ferredoxin-NADP+ reductase Y314S (maize).
Data set [7] deals with maize leaf ferredoxin-NADP+ reductase R244Q (maize).
The target of data set [8] is maize leaf ferredoxin-NADP+ reductase R235Q (maize).
The target of data set [9] is maize leaf ferredoxin-NADP+ reductase, wild-type (maize). Nature of the data set: ITC; 500 uM Fd I in the syringe titrated into 50 uM L-FNR in the cell; 50 mM Tris/HCl pH 7.5, no NaCl, 298 K; one set of independent binding sites; 50 uM NADP+. For orientation: ITC needs no label: the signal is the heat of the interaction.
Data set [10] has as its target maize leaf ferredoxin-NADP+ reductase Y314S (maize). The description is as above.
For data set [11], the target named is maize leaf ferredoxin-NADP+ reductase R244Q (maize). The description is as above.
In data set [12] the target is maize leaf ferredoxin-NADP+ reductase R235Q (maize). Described as above.
For data set [13], the target named is maize leaf ferredoxin-NADP+ reductase, wild-type (maize). In words: ITC; 500 uM Fd I in the syringe titrated into 50 uM L-FNR in the cell; 50 mM Tris/HCl pH 7.5, no NaCl, 298 K; one set of independent binding sites; 500 uM NADP+.
The target of data set [14] is maize leaf ferredoxin-NADP+ reductase Y314S (maize). The data set is described as above.
The target of data set [15] is maize leaf ferredoxin-NADP+ reductase R244Q (maize). Described as above.
The target of data set [16] is maize leaf ferredoxin-NADP+ reductase R235Q (maize). The description is as above.
The target of a further data set is T1, maize leaf FNR (L‐FNR) (Zea mays, UniProt Q9SLP6).
T1 construct: gene L-FNRI; recombinant mature leaf FNR, FAD flavoprotein, C-terminal Tyr314
T1 sequence (Q9SLP6 42-355): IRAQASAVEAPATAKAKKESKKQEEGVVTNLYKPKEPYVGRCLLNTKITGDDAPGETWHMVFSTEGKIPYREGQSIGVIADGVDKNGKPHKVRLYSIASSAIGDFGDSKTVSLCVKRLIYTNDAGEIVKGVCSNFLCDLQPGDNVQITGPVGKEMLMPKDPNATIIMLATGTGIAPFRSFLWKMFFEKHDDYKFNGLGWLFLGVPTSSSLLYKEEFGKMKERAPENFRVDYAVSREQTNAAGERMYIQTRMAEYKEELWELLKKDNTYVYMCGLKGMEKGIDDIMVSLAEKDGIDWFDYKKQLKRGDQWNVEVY
In words: ITC of Fd I binding to FNR in presence of ligand; Fd-affinity chromatography. To be noted: 0-500 μM NADP+ (ITC); 50 mM Tris/HCl, pH 7.5; 298 K; allosteric on Fd binding.

Substrate in data set [17]: NC(=O)C1=CN([C@@H]2O[C@H](COP(=O)(O)OP(=O)(O)OC[C@H]3O[C@@H](n4cnc5c(N)ncnc54)[C@H](OP(=O)(O)O)[C@@H]3O)[C@@H](O)[C@H]2O)C=CC1
In words: NADPH-dependent diaphorase assay. It is filed as biochemical, Zea mays. To be noted: DCPIP as electron acceptor. The text has this: NADPH-dependent diaphorase assay on maize leaf FNR (L‐FNR)

For “maize leaf ferredoxin I (from UniProt P27787 53-150) (natural protein)”, the Kd in data set [1] stood at 1200 nM; in [2], 2200 nM; in [3], 760 nM; in [4], 870 nM; in [9] it was 1600 nM; in [10], 2600 nM. In addition, the Kd was found to be 790 nM in data set [11]; 780 nM in data set [12]; 3700 nM in data set [13]; 2300 nM in data set [14]; 1100 nM in [15]; 1300 nM in data set [16]. Further, the dH in data set [1] came to 9.8 kcal/mol; in data set [2], 5.6 kcal/mol; in data set [3], 8.3 kcal/mol; in data set [4], 8.3 kcal/mol; in data set [9], 8.8 kcal/mol; in data set [10] it was 4.3 kcal/mol. Further, the dH was 7.4 kcal/mol in data set [11]; 7.3 kcal/mol in data set [12]; 6.7 kcal/mol in [13]; 3.6 kcal/mol in data set [14]; 5.8 kcal/mol in data set [15]; 6.3 kcal/mol in [16]. Also, the stoichiometry N in data set [1], in data set [2], in [3], in [4], in [9] and in [10] was 0.7 each time. The stoichiometry N in [11] was found to be 0.8; in data set [12] it was 0.7; in data set [13], 0.8; in data set [14], 0.7; in [15], 1; in [16], 0.9. Further, the apparent Km for Fd in NADPH-dependent cyt c reduction, at 50 uM, 250 uM, 500 uM and 1 mM NADPH (3.5 to 44 uM) in data set [5] came out at 44 µM. In data set [6], the Km for Fd in NADPH-dependent cyt c reduction, at 50 uM, 250 uM and 500 uM NADPH (17, 13, 18 uM; not determined at 1 mM) is 18 µM. Further, the Km for Fd in NADPH-dependent cyt c reduction, at 50 uM, 250 uM, 500 uM and 1 mM NADPH (0.75 to 6.9 uM) in [7] amounted to 6.9 µM. Moreover, the Km for Fd in NADPH-dependent cyt c reduction, at 50 uM, 250 uM, 500 uM and 1 mM NADPH (0.30 to 5.0 uM) in [8] is 5 µM.
Consider `NC(=O)c1ccc[n+]([C@@H]2O[C@H](COP(=O)(O)OP(=O)(O)OC[C@H]3O[C@@H](n4cnc5c(N)ncnc54)[C@H](OP(=O)(O)O)[C@@H]3O)[C@@H](O)[C@H]2O)c1` [NADP^+], for which the “ITC of Fd I binding to FNR in presence of ligand; Fd-affinity chromatography” value at maize leaf FNR (L‐FNR) was “The resulting dissociation constant (K d) increased by addition of NADP^+ into the titration reaction”.

B1: maize leaf FNR (L‐FNR) (Zea mays) (protein)
chain: IRAQASAVEAPATAKAKKESKKQEEGVVTNLYKPKEPYVGRCLLNTKITGDDAPGETWHMVFSTEGKIPYREGQSIGVIADGVDKNGKPHKVRLYSIASSAIGDFGDSKTVSLCVKRLIYTNDAGEIVKGVCSNFLCDLQPGDNVQITGPVGKEMLMPKDPNATIIMLATGTGIAPFRSFLWKMFFEKHDDYKFNGLGWLFLGVPTSSSLLYKEEFGKMKERAPENFRVDYAVSREQTNAAGERMYIQTRMAEYKEELWELLKKDNTYVYMCGLKGMEKGIDDIMVSLAEKDGIDWFDYKKQLKRGDQWNVEVY
notes: recombinant mature leaf FNR, FAD flavoprotein, C-terminal Tyr314
Regarding B1, in [17], the Km came to 46 ± 3 µM and the turnover number (kcat) amounted to 76 ± 14 s⁻¹.

B2: maize leaf FNR (L‐FNR) (Zea mays; Y355S) (protein)
chain: IRAQASAVEAPATAKAKKESKKQEEGVVTNLYKPKEPYVGRCLLNTKITGDDAPGETWHMVFSTEGKIPYREGQSIGVIADGVDKNGKPHKVRLYSIASSAIGDFGDSKTVSLCVKRLIYTNDAGEIVKGVCSNFLCDLQPGDNVQITGPVGKEMLMPKDPNATIIMLATGTGIAPFRSFLWKMFFEKHDDYKFNGLGWLFLGVPTSSSLLYKEEFGKMKERAPENFRVDYAVSREQTNAAGERMYIQTRMAEYKEELWELLKKDNTYVYMCGLKGMEKGIDDIMVSLAEKDGIDWFDYKKQLKRGDQWNVEVS
notes: as for B1
As to B2, in data set [17], the Km amounted to 0.27 ± 0.08 µM and the kcat was 41 ± 6 s⁻¹.

B3: maize leaf FNR (L‐FNR) (Zea mays; R285Q) (protein)
chain: IRAQASAVEAPATAKAKKESKKQEEGVVTNLYKPKEPYVGRCLLNTKITGDDAPGETWHMVFSTEGKIPYREGQSIGVIADGVDKNGKPHKVRLYSIASSAIGDFGDSKTVSLCVKRLIYTNDAGEIVKGVCSNFLCDLQPGDNVQITGPVGKEMLMPKDPNATIIMLATGTGIAPFRSFLWKMFFEKHDDYKFNGLGWLFLGVPTSSSLLYKEEFGKMKERAPENFRVDYAVSREQTNAAGEQMYIQTRMAEYKEELWELLKKDNTYVYMCGLKGMEKGIDDIMVSLAEKDGIDWFDYKKQLKRGDQWNVEVY
notes: as for B1
With B3, in data set [17], the Km amounted to 310 ± 60 µM and the kcat came to 139 ± 13 s⁻¹.

B4: maize leaf FNR (L‐FNR) (Zea mays; R276Q) (protein)
chain: IRAQASAVEAPATAKAKKESKKQEEGVVTNLYKPKEPYVGRCLLNTKITGDDAPGETWHMVFSTEGKIPYREGQSIGVIADGVDKNGKPHKVRLYSIASSAIGDFGDSKTVSLCVKRLIYTNDAGEIVKGVCSNFLCDLQPGDNVQITGPVGKEMLMPKDPNATIIMLATGTGIAPFRSFLWKMFFEKHDDYKFNGLGWLFLGVPTSSSLLYKEEFGKMKERAPENFRVDYAVSQEQTNAAGERMYIQTRMAEYKEELWELLKKDNTYVYMCGLKGMEKGIDDIMVSLAEKDGIDWFDYKKQLKRGDQWNVEVY
notes: as for B1
As to B4, in [17], the Michaelis constant (Km) amounted to 500 ± 120 µM and the kcat was found to be 60 ± 7 s⁻¹.
